Blank lines part the entries; values can stand above or below the binder they belong to.
Assays:
[1] = target: T1, human PD-L1 on cells (activated hPBMCs; MDA-MB-231 tumor cells) (human, UniProt Q9NZQ7 19-290); experiment: cell ELISA on activated hPBMCs (apparent Kd, legend paragraph 26) [continued]
T1 construct: whole, on cells; also called PD-L protein
Method: (§1) FIG. 2: Binding affinity of the selected antibodies for lymphocytes. The ELISA assays were performed with mAbs used at increasing concentrations (7.5 nM, 25 nM, 50 nM, 100 nM) on activated hPBMCs (black curves) or untreated hPBMCs (grey curves).
(§2) Plates were then centrifuged, cell pellets were washed with PBS and incubated with HRP-conjugated anti-human IgG goat polyclonal antibody for 1 hour at room temperature. Following additional washes in PBS 1×, TMB reagent was added for 10 min before quenching with an equal volume of 1N HCl. Absorbance at 450 nm was measured by the Envision plate reader (Perkin Elmer, Waltham, Mass., USA).

[2] = target: T1, human PD-L1 on cells (activated hPBMCs; …); experiment: cell ELISA on MDA-MB-231 tumor cells expressing PD-L1 (apparent Kd) [continued]
Method: as §2

[3] = target: T2, human PD-L1/Fc recombinant chimeric protein (R&D Systems) (human, UniProt Q9NZQ7 19-239); experiment: ELISA on coated recombinant PD-L1/Fc, mAb at increasing concentrations (apparent Kd, legend paragraph 26) [continued]
T2 construct: Bought from R&D Systems; also called recombinant protein/Fc
Method: as §1
(§3) To confirm the binding specificity of the purified mAbs, ELISA assays were performed on chimeric proteins (coated at 5 μg/ml), tumor cells (PD-L1-positive breast cancer MDA-MB-231 cells or PD-L1-negative breast cancer MCF7), and untreated or activated hPBMCs. The ELISA assays on coated chimeric protein were performed by coating Nunc™ flat-bottom 96-well plates (Fisher Scientific, Thermo Fisher Scientific) with 5 μg/ml […], […] and rhLAG-3 recombinant proteins in a solution of 0.05 M NaHCO₃ for 72 hours at 37° C. […] After extensive washes with PBS, the plates were incubated with (HRP)-conjugated anti-human IgG (Fab′)2 goat monoclonal antibody (Abcam, Cambridge, UK) for 1 hour, washed again and incubated with TMB reagent for 10 min before quenching with an equal volume of 1N HCl.

[4] = target: T3, human PD-1 on activated hPBMCs (human, UniProt Q15116 25-288); experiment: cell ELISA on activated hPBMCs (apparent Kd, legend paragraph 26) [continued]
T3 construct: whole, on cells; also called cognate receptor expressed on hPBMCs
Method: as §1, §2

[5] = target: T4, human PD-1/Fc recombinant chimeric protein (R&D Systems) (human, UniProt Q15116 25-167); experiment: ELISA on coated recombinant PD-1/Fc, mAb at increasing concentrations (apparent Kd, legend paragraph 26) [continued]
T4 construct: Bought from R&D Systems; also called rhPD-1; recombinant protein/Fc
Method: as §1, §3

[6] = target: T5, human LAG-3 on activated hPBMCs (human, UniProt P18627 23-525); experiment: cell ELISA on activated hPBMCs (apparent Kd, legend paragraph 26)
T5 construct: whole, on cells; also called cognate receptor expressed on hPBMCs
T5 sequence (looked up): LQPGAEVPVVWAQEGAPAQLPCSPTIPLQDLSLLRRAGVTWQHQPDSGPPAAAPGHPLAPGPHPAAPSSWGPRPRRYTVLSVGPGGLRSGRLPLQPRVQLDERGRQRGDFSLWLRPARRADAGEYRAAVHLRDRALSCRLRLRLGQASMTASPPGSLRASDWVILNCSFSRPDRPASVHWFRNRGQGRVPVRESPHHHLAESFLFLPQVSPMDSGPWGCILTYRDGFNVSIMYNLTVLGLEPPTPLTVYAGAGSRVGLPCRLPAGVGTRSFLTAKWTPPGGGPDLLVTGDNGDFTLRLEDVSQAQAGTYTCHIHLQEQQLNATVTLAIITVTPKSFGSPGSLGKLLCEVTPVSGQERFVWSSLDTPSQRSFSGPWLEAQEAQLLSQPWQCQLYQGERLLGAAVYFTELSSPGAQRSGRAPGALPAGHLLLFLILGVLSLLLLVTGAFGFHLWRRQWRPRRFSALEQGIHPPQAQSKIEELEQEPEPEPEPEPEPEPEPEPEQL
Method: as §1, §2

[7] = target: T6, human LAG-3/Fc recombinant chimeric protein (R&D Systems) (human, UniProt P18627 23-450); experiment: ELISA on coated recombinant LAG-3/Fc, mAb at increasing concentrations (apparent Kd, legend paragraph 26)
T6 construct: Bought from R&D Systems; also called rhLAG-3; recombinant protein/Fc
T6 sequence (looked up): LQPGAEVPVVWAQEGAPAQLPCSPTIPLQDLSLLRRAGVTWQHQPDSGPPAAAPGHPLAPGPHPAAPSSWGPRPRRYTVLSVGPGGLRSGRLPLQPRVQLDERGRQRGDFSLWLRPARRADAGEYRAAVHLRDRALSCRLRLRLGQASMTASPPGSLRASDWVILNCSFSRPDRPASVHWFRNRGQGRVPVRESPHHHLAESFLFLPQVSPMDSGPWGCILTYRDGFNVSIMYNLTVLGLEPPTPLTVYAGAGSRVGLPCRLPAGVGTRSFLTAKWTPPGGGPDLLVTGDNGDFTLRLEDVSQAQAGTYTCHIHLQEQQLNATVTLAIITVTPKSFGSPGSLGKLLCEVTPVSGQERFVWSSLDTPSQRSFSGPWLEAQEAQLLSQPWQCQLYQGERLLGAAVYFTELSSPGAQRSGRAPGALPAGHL
Method: as §1, §3

[8] = target: T1, human PD-L1 on cells (activated hPBMCs; …); experiment: flow cytometry on hPBMCs activated with anti-CD3/CD28 beads, MFI against IgG concentration
Method: Human PBMCs isolated from healthy donors were activated with anti-CD3/CD28 beads to stimulate PD-L1 expression.
The human peripheral blood mononuclear cells (hPBMCs) isolated from healthy donors were thawed in RPMI 1640 medium (Gibco), supplemented with 2 mM L-glutamine, 10% (v/v) CTL wash supplement (CTL, Shaker Heights, Ohio, USA), 100 U/ml Benzonase (Merck Millipore, Burlington, Mass., United States). After centrifugation at 1200 rpm for 10 min, they were resuspended in complete RPMI medium supplemented with 10% (v/v) heat-inactivated fetal bovine serum (FBS, Sigma), 2 mM L-glutamine, 100 U/ml penicillin and 100 µg/ml streptomicin (Gibco), HEPES 10 mM (Gibco). After resting for 16 h at 37° C. in a humidified atmosphere with 5% CO2, hPBMCs were counted, resuspended at a concentration of 10\hat{ }6 viable cells/ml in complete RPMI medium (as above) and activated with Dynabeads Human T-Activator CD3/CD28 (Gibco), 25 μl beads/10\hat{ }6 viable cells. 24 h post activation, the cells were centrifuged and plated at 4×10\hat{ }5 cells/well in PBS in a 96 well plate with round bottom. After one wash in PBS, they were incubated with 50 μl LIVE/DEAD™ Fixable Violet Dead Cell Stain (Invitrogen) for 30 min at +4° C. and washed once again.

T1 sequence (Q9NZQ7 19-290): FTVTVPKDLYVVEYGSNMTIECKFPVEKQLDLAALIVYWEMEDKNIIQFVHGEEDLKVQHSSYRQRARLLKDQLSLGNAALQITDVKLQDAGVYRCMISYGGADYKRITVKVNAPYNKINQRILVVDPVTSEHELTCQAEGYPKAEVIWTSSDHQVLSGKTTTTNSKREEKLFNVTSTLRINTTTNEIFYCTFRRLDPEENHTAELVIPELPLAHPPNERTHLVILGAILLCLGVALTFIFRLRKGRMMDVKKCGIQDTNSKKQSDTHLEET
T4 sequence (Q15116 25-167, change not shown): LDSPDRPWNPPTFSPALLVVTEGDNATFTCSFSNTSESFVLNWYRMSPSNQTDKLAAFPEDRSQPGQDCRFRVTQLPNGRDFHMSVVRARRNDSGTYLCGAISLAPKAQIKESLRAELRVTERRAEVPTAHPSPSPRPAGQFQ
T3 sequence (Q15116 25-288): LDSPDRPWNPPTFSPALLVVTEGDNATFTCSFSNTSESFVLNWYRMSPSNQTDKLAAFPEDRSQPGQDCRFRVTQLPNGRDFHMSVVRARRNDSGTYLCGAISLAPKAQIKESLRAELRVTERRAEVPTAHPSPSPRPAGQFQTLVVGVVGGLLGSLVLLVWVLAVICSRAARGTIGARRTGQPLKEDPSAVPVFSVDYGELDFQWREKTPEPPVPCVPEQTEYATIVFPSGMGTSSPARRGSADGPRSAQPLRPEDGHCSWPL
T2 sequence (Q9NZQ7 19-239, change not shown): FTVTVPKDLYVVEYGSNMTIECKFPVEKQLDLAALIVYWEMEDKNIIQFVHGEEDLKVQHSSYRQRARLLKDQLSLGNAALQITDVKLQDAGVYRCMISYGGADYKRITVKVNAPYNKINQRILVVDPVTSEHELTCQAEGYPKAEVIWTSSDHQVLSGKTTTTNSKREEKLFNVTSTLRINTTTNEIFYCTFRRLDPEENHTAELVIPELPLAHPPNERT

B3: LAG-3_D (antibody, V domains shown)
VH: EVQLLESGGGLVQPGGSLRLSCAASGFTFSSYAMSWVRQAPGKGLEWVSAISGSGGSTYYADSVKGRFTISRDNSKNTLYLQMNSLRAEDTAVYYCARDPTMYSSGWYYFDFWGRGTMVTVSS
VL: ALSYVLTQPPSVSEAPRQRVTISCSGSSSNIGNNAVNWYQQLPGKAPKLLIYYDDLLPSGVSDRFSGSKSGTSASLAISGLQSEDEADYYCATWDDSLNGQVFGTGTKLTVL
Kd [6]: 19 nM
Kd [7]: 24 nM

B4: PD-L1_E (antibody, V domains shown)
VH: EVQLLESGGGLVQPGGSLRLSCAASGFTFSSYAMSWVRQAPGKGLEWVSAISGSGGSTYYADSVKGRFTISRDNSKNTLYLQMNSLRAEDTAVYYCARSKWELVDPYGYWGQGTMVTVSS
VL: ANFMLTQPHSVSESPGKTITISCTRSSGSIAGNYVQWYQQRPGSAPIIVIYEDNQRPSGVPDRFSGSIDSSSNSASLTISRLKTEDEADYYCQSYEASNVVFGGGTKLTVL
notes: Tested as a mAb detected with anti-human IgG Fc
binding result [8]: binds

B6: LAG-3_C (antibody, human IgG4, V domains shown)
VH: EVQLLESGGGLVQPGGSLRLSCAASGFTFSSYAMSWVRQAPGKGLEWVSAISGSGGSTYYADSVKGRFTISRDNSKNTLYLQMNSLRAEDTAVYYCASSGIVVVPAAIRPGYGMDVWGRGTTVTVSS
VL: AQAVLTQPSSVSGAPGQRVTISCTGSSSNIGAGYDVHWYQQLPGTAPKLLIYGNNNRPSGVPDRFSGSKSGTSASLAITGLQPEDEADYYCQSYDFGLSRVFGGGTKLTVL
notes: also called mAb LAG-3_C
Kd [6]: 2.6 nM
Kd [7]: 52 nM

B7: LAG-3_A (antibody, human IgG4, V domains shown)
VH: EVQLLESGGGLVQPGGSLRLSCAASGFTFSSYAMSWVRQAPGKGLEWVSAISGSGGSTYYADSVKGRFTISRDNSKDTLYLQMNSLRAEDTAVYYCARDGPLYDISAGFVPISYYLDYWGQGTTVTVSS
VL: AQPVLTQPPSASGTPGQRVTISCSGSFSNIGSNYVFWYQQLPGTAPKLLISGNNQRPSGVPDRFSGSKSGTSASLAISGLRSQDEADYYCATWDDSLRGWVFGGGTKLTVL
notes: also called mAb LAG-3_A
Kd [6]: 6 nM
Kd [7]: 38 nM

More lines, now with the values ahead:

Kd [1]: 0.1 nM
Kd [2]: 0.74 nM
Kd [3]: 0.46 nM
B1: PD-L1_B (antibody, V domains shown)
VH: QVQLVQSGAEVKKPGSSVEVSCKVSGNTVIGYAVSWVRQAPGQGPEWMGRLIPSVGLTNYAQKFQDRLTFTADTSTSTVTMALSSLTSEDTAMYYCARDVSPAVPVSQYWGQGTLVTVSS
VL: AQSVLTQPPSVSAAPGQKVIISCSGDSFNIGSHSVSWYKQLPGSAPKLLIYENNVRPSGIPDRFSGSKSGTSATLGITGLQTRDEADYYCGAWDSSLNGHWVFGGGTQLTVL
notes: also called mAb PD-L1_B

Kd [4]: 0.14 nM
Kd [5]: 0.15 nM
B2: PD-1_A (antibody, V domains shown)
VH: QVQLQESGPGVVKPSGTLSLTCAISGGSIGSGGSIRSTRWWSWVRQSPGKGLEWIGEIYHSGSTNYNPSLKSRVTISLDKSRNHFSLRLNSVTAADTAVYYCARQDYGDSGDWYFDLWGKGTLVTVSS
VL: AQAVLTQPSSVSGAPGQRVTISCTGSSSNIGAGYDVHWYQQLPGTAPKLLIYGNNNRPSGVPDRFSGSKSGTSASLAITGLQTEDEADYYCQSYDNSLSGEVFGGGTKVTVL
notes: also called mAb PD-1_A; anti-PD-1 antibody PD-1_A

EC50 (read off the curve) [8]: ~2 nM
B5: PD-L1_C (antibody, V domains shown)
VH: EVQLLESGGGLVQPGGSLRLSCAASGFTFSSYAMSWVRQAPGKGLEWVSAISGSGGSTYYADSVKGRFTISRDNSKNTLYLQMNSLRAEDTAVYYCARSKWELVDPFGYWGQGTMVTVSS
VL: B4 VL
notes: as for B4

Kd [4]: 0.6 nM
Kd [5]: 0.29 nM
B8: PD-1_B (antibody, V domains shown)
VH: QVQLVQSGAEVKKPGASVKVSCKASGYTFTSYGISWVRQAPGQGLEWMGWISAYNGNTNYAQKLQGRVTMTTDTSTSTAYMELRSLRSDDTAVYYCARDFGSGSYYDLDYWGQGTMVTVSS
VL: ANFMLTQPHSVSESPGKTVTISCTGSSGSIASNYVQWYQQRPGSAPTTVIYEDNQRPSGVPDRFSGSIDSSSNSASLTISGLKTEDEADYYCQSYDSNNHWVFGGGTKLTVL
notes: also called mAb PD-1_B
